For 4 molecules, Kd results are on record in paper PMC8809517, “Cofactor-independent RNA editing by a synthetic S-type PPR protein”.

Changes are numbered by the printed parent chain.

Test in all cases: high-throughput RNA pulldown from lysate on Ni-NTA beads; HRP: 50 mM Tris pH 8, 150 mM NaCl, 1 mM beta-mercaptoethanol, 50 ug/ml BSA, 3 ug/ml yeast RNA, 0.5% heparin; ITC and FP: Tris pH 8, 200 mM KCl, 5% glycerol; MST: 50 mM Tris pH 8, 200 mM NaCl, 1 mM DTT, BSA, heparin, 0.05% Tween 20
Holding throughout (conditions): tags: N-terminal His-eGFP

In data set [1] the target is T1, GFP-9S library array, motif 4 ND N98P;D124C (synthetic construct, N98P;D124C).
T1 chain: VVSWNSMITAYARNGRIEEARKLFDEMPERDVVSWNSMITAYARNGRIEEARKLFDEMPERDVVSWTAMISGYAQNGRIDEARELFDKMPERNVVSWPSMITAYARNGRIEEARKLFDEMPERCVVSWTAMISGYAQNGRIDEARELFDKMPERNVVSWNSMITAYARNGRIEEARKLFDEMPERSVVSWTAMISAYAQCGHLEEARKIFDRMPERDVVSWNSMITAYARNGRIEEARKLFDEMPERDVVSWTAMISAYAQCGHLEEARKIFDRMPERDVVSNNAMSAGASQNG

Data set [2] deals with T2, GFP-9S library array, motif 4 ND N98F;D124N (synthetic construct, N98F;D124N).
T2 chain: T1 chain with P98F, C124N

Data set [3] addresses T3, GFP-9S library array, motif 4 ND N98V;D124T (synthetic construct, N98V;D124T).
T3 chain: T1 chain with P98V, C124T

Data set [4] concerns the target T4, GFP-9S library array, motif 4 ND N98L;D124C (synthetic construct, N98L;D124C).
T4 chain: T1 chain with P98L

Data set [5] has as its target T5, GFP-9S library array, motif 4 ND N98M;D124P (synthetic construct, N98M;D124P).
T5 chain: T1 chain with P98M, C124P

AUUAAACGUGA (ssRNA) [IR-rpoA-A]: the equilibrium dissociation constant (Kd) is 660 nM in data set [1] (label: 5' IRDye 800CW); 196 nM in data set [2] (label: 5' IRDye 800CW); 36.3 nM in data set [3] (label: 5' IRDye 800CW); 98.7 nM in data set [4] (label: 5' IRDye 800CW); 264 nM in data set [5] (label: 5' IRDye 800CW).

On to AUUAGACGUGA (ssRNA) [Cy5-rpoA-G], for which the Kd came to 297 nM in data set [1] (label: 5' Cy5); 101 nM in data set [2] (label: 5' Cy5); 86.7 nM in data set [3] (label: 5' Cy5); 70.4 nM in data set [4] (label: 5' Cy5); 115 nM in data set [5] (label: 5' Cy5).

As for AUUACACGUGA (ssRNA) [Cy5-rpoA], the Kd in data set [1] (label: 5' Cy5) worked out at 332 nM; in data set [2] (label: 5' Cy5), 81.4 nM; in data set [3] (label: 5' Cy5), 89.3 nM; in data set [4] (label: 5' Cy5) it was 89 nM; in data set [5] (label: 5' Cy5) it was 106 nM.

AUUAUACGUGA (ssRNA) [IR-rpoA-U]: the dissociation constant (Kd) in data set [1] (label: 5' IRDye 800CW) came to 874 nM; in data set [2] (label: 5' IRDye 800CW), 112 nM; in data set [3] (label: 5' IRDye 800CW), 29.3 nM; in data set [4] (label: 5' IRDye 800CW), 60.2 nM; in data set [5] (label: 5' IRDye 800CW), 296 nM.
